“Also recorded” adds a separate entry of the source.
T1: human CD39 endogenously expressed on MEL-28 cells (Homo sapiens, UniProt P49961)
T1 construct: MEL-28 cells (35,000 MEL-28 cells/well) endogenously expressing human CD39; endogenous in cells; host or cells: MEL-28
T1 sequence (P49961 1-510): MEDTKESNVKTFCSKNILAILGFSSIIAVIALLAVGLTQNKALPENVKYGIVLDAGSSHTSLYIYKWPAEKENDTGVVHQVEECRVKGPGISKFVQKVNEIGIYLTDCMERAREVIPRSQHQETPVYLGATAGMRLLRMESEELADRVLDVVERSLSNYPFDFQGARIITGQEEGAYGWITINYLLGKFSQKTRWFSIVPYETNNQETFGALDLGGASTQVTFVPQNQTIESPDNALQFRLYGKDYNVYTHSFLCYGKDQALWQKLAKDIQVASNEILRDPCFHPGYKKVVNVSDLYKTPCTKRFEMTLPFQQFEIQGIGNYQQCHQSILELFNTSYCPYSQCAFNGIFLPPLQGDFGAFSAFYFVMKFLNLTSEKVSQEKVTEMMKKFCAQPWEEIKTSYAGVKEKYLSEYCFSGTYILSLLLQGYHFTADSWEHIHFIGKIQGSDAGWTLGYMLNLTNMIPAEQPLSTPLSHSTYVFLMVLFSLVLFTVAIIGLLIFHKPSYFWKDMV

T2: hCD39-ECD (Homo sapiens, UniProt P49961)
T2 sequence (P49961 38-478 limits assumed): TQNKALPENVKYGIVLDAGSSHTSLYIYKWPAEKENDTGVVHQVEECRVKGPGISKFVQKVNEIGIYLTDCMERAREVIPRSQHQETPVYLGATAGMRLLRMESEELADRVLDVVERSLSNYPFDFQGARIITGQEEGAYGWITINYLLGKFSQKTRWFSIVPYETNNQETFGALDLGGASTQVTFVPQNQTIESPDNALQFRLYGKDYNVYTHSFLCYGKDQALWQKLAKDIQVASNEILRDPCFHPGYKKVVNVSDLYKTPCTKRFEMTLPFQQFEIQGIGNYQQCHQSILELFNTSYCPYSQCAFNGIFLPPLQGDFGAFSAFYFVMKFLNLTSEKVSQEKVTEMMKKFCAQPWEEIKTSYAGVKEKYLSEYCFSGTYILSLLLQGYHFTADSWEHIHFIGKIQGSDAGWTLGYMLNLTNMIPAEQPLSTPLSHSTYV

T3: CD39 expressed on MEL-28 cells (Homo sapiens, UniProt P49961)
T3 construct: endogenous in cells; host or cells: MEL-28
T3 sequence (P49961 1-510): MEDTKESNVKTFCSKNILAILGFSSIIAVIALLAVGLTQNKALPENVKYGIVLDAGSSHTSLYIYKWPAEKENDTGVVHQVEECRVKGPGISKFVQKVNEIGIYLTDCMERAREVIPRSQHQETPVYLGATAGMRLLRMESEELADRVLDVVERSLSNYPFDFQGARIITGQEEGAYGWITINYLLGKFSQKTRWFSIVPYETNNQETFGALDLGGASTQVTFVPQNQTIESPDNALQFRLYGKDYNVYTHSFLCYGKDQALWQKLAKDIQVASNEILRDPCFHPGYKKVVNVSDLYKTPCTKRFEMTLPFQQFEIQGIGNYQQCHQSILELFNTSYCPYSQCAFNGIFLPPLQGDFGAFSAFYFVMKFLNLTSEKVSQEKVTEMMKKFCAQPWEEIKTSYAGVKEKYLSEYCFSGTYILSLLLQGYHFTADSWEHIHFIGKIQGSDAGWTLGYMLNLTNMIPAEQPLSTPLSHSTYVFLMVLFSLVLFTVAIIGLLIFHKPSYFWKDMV


Key:
[1] = molecular target: T1, human CD39 endogenously expressed on MEL-28 cells; test: EnzChek kinetic Pi detection assay on MEL-28 cells (initial velocity, Michaelis-Menten); type: cell-based; conditions: ARL 200 micromolar, isotype control 7.7
Experimental: Anti-CD39 antibodies (100 nanomolar), isotype control antibody (100 nanomolar), or ARL (200 micromolar) were incubated with MEL-28 cells endogenously expressing human CD39 for 2 hours. ATP was then added and the rate of ATP hydrolysis to Pi by CD39 was monitored using the EnzChek kinetic Pi detection assay. The initial enzyme velocity, ν0, was determined from the linear region of Pi vs. time curve over the first 15 minutes post-ATP addition. Each value is the mean of 3 replicates.
Anti-CD39 antibodies or isotype control antibody (100 nanomolar final concentration) were incubated with MEL-28 cells (35,000 MEL-28 cells/well) endogenously expressing human CD39 at 37° C. for 20 minutes in the presence of EnzChek reagents (PNP & MESG). Immediately following the addition of ATP (final concentrations ranging from 0-450 micromolar), the rate of ATP hydrolysis to free phosphate (Pi) by CD39 was monitored over time at Abs360 nm using SpectraMax i3x plate reader. The initial enzyme velocity, ν0, was determined from the linear region of Pi vs. time curve for each ATP concentration. The plot of ν0 vs. [ATP] was curve fit using non-linear regression of the Michaelis-Menten kinetic model.

hCD39-ECD [2] = molecular target: T2, hCD39-ECD; test: Epitope binning / competition for hCD39-ECD binding by Bio-Layer Interferometry
Text: A1 antibody was immobilized onto an Anti-Mouse IgG Fc Capture (AMC) biosensor (ForteBio). Association of hCD39-ECD was then monitored for 180 seconds via Bio-Layer Interferometry (BLI) using the Octet system (ForteBio), at which point the biosensor was dipped into competitor antibody and monitored for another 180 seconds.
The methods are the same as set forth above except that instead of A1, the representative antibody was immobilized using anti-human IgG Fc Capture (AHC) biosensor.
(§1) Also, an 18 hour incubation was used with the antibody or isotype control. Finally, an additional 30 second baseline dip in buffer between antigen capture and dipping into a second competitor antibody for 300 seconds was used.

hCD39-ECD [3] = molecular target: T2, hCD39-ECD; test: rhCD39-ECD ATPase inhibition (Malachite Green free phosphate); type: biochemical; parameters: purchased R&D Systems; conditions: 50 μg/ml antibody; 10 μM ATP; vs isotype or buffer controls
Experimental: 0.04-3.3 nM rhCD39-ECD (R&D Systems) was incubated with buffer, 50 μg/ml antibody or 100 μM POM-1 (Alpha Aesar) for 1 hr at 37° C. in assay buffer (25 mM Tris pH 7.5, 5 mM CaCl2) at which point ATP (Sigma) was spiked in to a final concentration of 10 μM, and the reaction further incubated for 30 min 37° C. Production of free phosphate (Pi) was subsequently measured using Malachite Green Phosphate Detection kit (R&D Systems).
as §1

[4] = molecular target: T3, CD39 expressed on MEL-28 cells; test: Cellular CD39 ATPase inhibition (Malachite Green), Example 15; type: cell-based; conditions: 10-25 μg/ml antibody; 50 μM ATP; vs isotype control
Experimental: Indicated cells were incubated in assay buffer with 10-25 μg/ml antibody, 100 μM POM-1 or 100 μM ARL for 30 min at 37° C. 5% CO2. ATP was added to a final concentration of 50 μM and the incubation continued for 15 min. Supernatant was evaluated for free phosphate (Pi) using the Malachite Green Phosphate Detection kit. Palivizumab is used as an isotype control and POM-1 and ARL are non-specific small molecule inhibitors of CD39.
as §1

Row | Molecule | ATP hydrolysis rate (initial velocity) [1] [micromolar Pi per minute] | competition / binning with other anti-CD39 antibody bin groups for ECD binding (hCD39-ECD [2]) | competition with antibody A1 for binding to hCD39 ECD (hCD39-ECD [2]; A1 immobilized, ECD captured, then competitor antibody) | inhibition of ATPase activity of soluble hCD39 ECD (μM Pi) (hCD39-ECD [3]) | inhibition of ATPase activity of CD39 expressed on MEL-28 cells [4]
1 | CCN(CC)c1ncnc2c1ncn2[C@@H]1O[C@H](COP(=O)(O)OP(=O)(O)C(Br)(Br)P(=O)(O)O)[C@@H](O)[C@H]1O [ARL] | 1.2 | – | – | – | –
2 | 27571: anti-human CD39 antibody inhibiting soluble ECD and cellular CD39 (antibody, V domains shown, Synthetic VH, 27571; Synthetic VL, 27571) VH: QVQLVQSGAEVKKPGSSVKASCKASGGTFSSYAISWVRQAPGQGLEWMGSIIPIFGTANYAQKFRGRVTITADESTSTTYMELSSLRSEDTAVYYCARESGGYRDHRLDVWGQGTMVTVSS VL: EIVMTQSPATLSVSPGERATLSCRASQSVGSNLAWYQQKPGQAPRLLIYGASTRATGIPARFSGSGSGTEFTLTISSLQSEDFAVYYCQQYLIWPLTFGGGTKVEIK | – | do not compete | does not block binding; also recorded: do not compete | able to inhibit the hydrolysis of ATP by hCD39 ECD | inhibit the hydrolysis of CD39 expressed on MEL-28 cells
